Experimental data from patent US20240392023A1 (ABCLON, published 2024).

Experiments:
[1] = target: T1, CD30 expressed on cells (CD30-293T, SUDHL1, HDLM-2) (UniProt P28908 19-595); assay: cell-based or functional assay
T1 sequence (looked up): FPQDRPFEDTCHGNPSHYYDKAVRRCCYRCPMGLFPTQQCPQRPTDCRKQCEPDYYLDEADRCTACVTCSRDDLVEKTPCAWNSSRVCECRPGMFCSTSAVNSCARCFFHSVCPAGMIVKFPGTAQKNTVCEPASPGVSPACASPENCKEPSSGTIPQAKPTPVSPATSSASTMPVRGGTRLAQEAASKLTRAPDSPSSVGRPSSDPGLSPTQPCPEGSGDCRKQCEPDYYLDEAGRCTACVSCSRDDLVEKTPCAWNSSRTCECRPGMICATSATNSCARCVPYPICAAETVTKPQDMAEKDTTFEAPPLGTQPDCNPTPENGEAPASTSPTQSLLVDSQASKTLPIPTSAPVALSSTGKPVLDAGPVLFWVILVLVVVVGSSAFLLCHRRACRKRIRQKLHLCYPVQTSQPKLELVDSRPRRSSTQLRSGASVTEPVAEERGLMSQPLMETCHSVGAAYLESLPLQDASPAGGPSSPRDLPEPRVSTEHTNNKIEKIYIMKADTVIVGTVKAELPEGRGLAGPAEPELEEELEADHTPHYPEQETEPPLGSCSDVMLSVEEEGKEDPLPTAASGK

[2] = target: T1, CD30 expressed on cells (CD30-293T, …); assay: cell-based or functional assay; remark: listed apart in the source
[3] = target: T1, CD30 expressed on cells (CD30-293T, …); assay: cell-based or functional assay; remark: listed apart in the source
[4] = target: T2, CD30-His (Sino Biological, 10777-H08H) (UniProt P28908 19-379); assay: ELISA, scFv-Fc titrated on plate coated with 1 µg/mL CD30-His
T2 construct: Bought protein; also called CD30-His protein; CD30 protein; not shown: His tag
T2 sequence (looked up): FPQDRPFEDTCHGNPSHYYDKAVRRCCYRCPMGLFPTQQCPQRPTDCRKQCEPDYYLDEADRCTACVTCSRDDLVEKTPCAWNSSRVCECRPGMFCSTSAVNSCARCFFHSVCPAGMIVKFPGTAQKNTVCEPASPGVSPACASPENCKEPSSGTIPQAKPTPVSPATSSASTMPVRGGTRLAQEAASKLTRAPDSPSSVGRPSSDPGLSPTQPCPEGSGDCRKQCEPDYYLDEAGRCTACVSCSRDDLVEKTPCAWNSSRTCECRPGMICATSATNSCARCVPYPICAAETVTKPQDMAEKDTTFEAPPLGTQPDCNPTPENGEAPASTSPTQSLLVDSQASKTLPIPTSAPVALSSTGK
Procedure: For ELISA, the eleven purified anti-CD30 scFv-Fc forms and the positive control HRS scFV-Fc were 1/3 diluted for 10 points starting from 10 μg/mL in a plate coated with 1 μg/mL CD30-His protein. After treatment with a secondary antibody (anti-hIgG-Fc-HRP (Invitrogen, H10007)), a color was developed with TMB. OD₄₅₀ values were read using an ELISA reader, and EC₅₀ values were measured by means of Graph prism (FIG. 1, Table 3).

B1: scFv CAR of anti CD30 antibody (T1-159), on CAR-T cells (other)
chain: EVQLLESGGGLVQPGGSLRLSCAASGFTFSSYGMSWVRQAPGKGLEWVSSIYYYSGGTYYADSVKGRFTISRDNSKNTLYLQMNSLRAEDTAVYYCARNDYRNNSDFDYWGQGTLVTVSSGGGGSGGGGSGGGGSQSVLTQPPSASGTPGQRVTISCSGSSSNIGSNYVYWYQQLPGTAPKLLIYRNNQRPSGVPDRFSGSKSGTSASLAISGLRSEDEADYYCAAYYPYYYVFGGGTKLTVLGGQAGQTTTPAPRPPTPAPTIASQPLSLRPEACRPAAGGAVHTRGLDFACDIYIWAPLAGTCGVLLLSLVITLYCKRGRKKLLYIFKQPFMRPVQTTQEEDGCSCRFPEEEEGGCELRVKFSRSADAPAYQQGQNQLYNELNLGRREEYDVLDKRRGRDPEMGGKPRRKNPQEGLYNELQKDKMAEAYSEIGMKGERRRGKGHDGLYQGLSTATKDTYDALHMQALPPR
- tumor death rate on HDLM-2 cells, ratio of CAR-T to the target 0.25 [1]: ≥ 50%
- Cytotoxicity (%) against CD30-expressing cell (CD30-293T), CAR-T/Target 0.11 [2]: -4%
- Cytotoxicity (%) against CD30-expressing cell (CD30-293T), CAR-T/Target 0.33 [2]: 60%
- Cytotoxicity (%) against CD30-expressing cell (CD30-293T), CAR-T/Target 1 [2]: 72%
- Cytotoxicity (%) against CD30-expressing cell (SUDHL1), CAR-T/Target 0.11 [3]: 24%
- Cytotoxicity (%) against CD30-expressing cell (SUDHL1), CAR-T/Target 0.33 [3]: 58%
- Cytotoxicity (%) against CD30-expressing cell (SUDHL1), CAR-T/Target 1 [3]: 88%

B2: T2-2 anti-CD30 scFv-Fc (Fc fusion)
chain: EVQLLESGGGLVQPGGSLRLSCAASGFTFSSYHMSWVRQAPGKGLEWVSGIGYGHGGTYYADSVKGRFTISRDNSKNTLYLQMNSLRAEDTAVYYCARYDYDYSFDYWGQGTLVTVSSGGGGSGGGGSGGGGSQSVLTQPPSASGTPGQRVTISCSGSSSNIGSNYVYWYQQLPGTAPKLLIYRNNQRPSGVPDRFSGSKSGTSASLAISGLRSEDEADYYCAVSSPYSYVFGGGTKLTVLG
notes: scFv-Fc-conjugated form (Zb-Fc); also called Zb-Fc form; not shown: Fc of the scFv-Fc form (Zb-Fc)
- EC50 [4]: 0.038 µg/mL

B3: T1-159 anti-CD30 scFv-Fc (Fc fusion)
scFv: EVQLLESGGGLVQPGGSLRLSCAASGFTFSSYGMSWVRQAPGKGLEWVSSIYYYSGGTYYADSVKGRFTISRDNSKNTLYLQMNSLRAEDTAVYYCARNDYRNNSDFDYWGQGTLVTVSSGGGGSGGGGSGGGGSQSVLTQPPSASGTPGQRVTISCSGSSSNIGSNYVYWYQQLPGTAPKLLIYRNNQRPSGVPDRFSGSKSGTSASLAISGLRSEDEADYYCAAYYPYYYVFGGGTKLTVLG
notes: scFv-Fc-conjugated form (Zb-Fc); also called Zb-Fc form; not shown: Fc of the scFv-Fc (Zb-Fc) form and any junction to it
- EC50 [4]: 0.26 µg/mL

B4: T1-141 anti-CD30 scFv-Fc (Fc fusion)
scFv: EVQLLESGGGLVQPGGSLRLSCAASGFTFSYYDMSWVRQAPGKGLEWVSGIYGSGSTYYADSVKGRFTISRDNSKNTLYLQMNSLRAEDTAVYYCARYSYYDSYSDYFDYWGQGTLVTVSSGGGGSGGGGSGGGGSQSVLTQPPSASGTPGQRVTISCSGSSSNIGSNYVYWYQQLPGTAPKLLIYRNNQRPSGVPDRFSGSKSGTSASLAISGLRSEDEADYYCAAYSYGYYVFGGGTKLTVLG
notes: scFv-Fc-conjugated form (Zb-Fc); also called Zb-Fc form; not shown: Fc of the scFv-Fc (Zb-Fc) form and its junction
- EC50 [4]: 0.026 µg/mL

B5: T1-36 anti-CD30 scFv-Fc (Fc fusion)
scFv: EVQLLESGGGLVQPGGSLRLSCAASGFTFSYYYMSWVRQAPGKGLEWVSYIGGGGSGTYYADSVKGRFTISRDNSKNTLYLQMNSLRAEDTAVYYCARGPYYGYFDYWGQGTLVTVSSGGGGSGGGGSGGGGSQSVLTQPPSASGTPGQRVTISCSGSSSNIGSNYVYWYQQLPGTAPKLLIYRNNQRPSGVPDRFSGSKSGTSASLAISGLRSEDEADYYCAAYPSYDSYVFGGGTKLTVLG
notes: as for B4
- EC50 [4]: 0.021 µg/mL

B6: T1-117 anti-CD30 scFv-Fc (Fc fusion)
scFv: EVQLLESGGGLVQPGGSLRLSCAASGFTFSYYGMSWVRQAPGKGLEWVSYISGYSSYTYYADSVKGRFTISRDNSKNTLYLQMNSLRAEDTAVYYCARYNDSGSFDYWGQGTLVTVSSGGGGSGGGGSGGGGSQSVLTQPPSASGTPGQRVTISCSGSSSNIGSNYVYWYQQLPGTAPKLLIYRNNQRPSGVPDRFSGSKSGTSASLAISGLRSEDEADYYCAADAGNRYVFGGGTKLTVLG
notes: as for B4
- EC50 [4]: 0.157 µg/mL
